57 variants from the RNAGym collection of RNA variant scans (doi:10.7554/elife.80360) can be followed below.

B1: Hammerhead Ribozyme (parent)
chain: ACCGGAUGUGCUUUCCGGUCUGAUGAGUCCGUGAGGACGAAACAG

The data set covers variants of B1. Description: self-cleavage, relative activity (ratio to wild type); higher = more cleavage; co-transcriptional.
Regarding ACCGGAUGCGCUUUCCGGUCUGAUCAGUCCGUGAGGACGAAACAG, the self-cleavage worked out at 0.294.

For ACCGGAUGCGCUUUCCGGUCUGAUAAGUCCGUGAGGACGAAACAG, the self-cleavage amounted to 0.312.

On to ACCGGAUGCGCUUUCCGGUCUGAUUAGUCCGUGAGGACGAAACAG, for which the self-cleavage came out at 0.309.

For ACCGGAUGCGCUUUCCGGCCUGAUGAGUCCGUGAGGACGAAACAG, the self-cleavage amounted to 0.514.

As for ACCGGAUGCGCUUUCCGGACUGAUGAGUCCGUGAGGACGAAACAG, the self-cleavage came to 0.286.

Regarding ACCGGAUGCGCUUUCCGGGCUGAUGAGUCCGUGAGGACGAAACAG, the self-cleavage came to 0.525.

As for ACCGGAUGCGCUUUCCGGUCUGAUGAGACCGUGAGGACGAAACAG, the self-cleavage is 0.717.

Turning to ACCGGAUGCGCUUUCCGGUCUGAUGAGGCCGUGAGGACGAAACAG, the self-cleavage worked out at 0.808.

On to ACCGGAUGCGCUUUCCGGUCUGAUGAGCCCGUGAGGACGAAACAG, for which the self-cleavage was found to be 1.08.

On to ACCGGAUGCCCUUUCCGGUCUGAUGAGUCCGUGAGGACGAAACAG, for which the self-cleavage worked out at 1.07.

Consider ACCGGAUGCUCUUUCCGGUCUGAUGAGUCCGUGAGGACGAAACAG, for which the self-cleavage is 0.795.

ACCGGAUGCACUUUCCGGUCUGAUGAGUCCGUGAGGACGAAACAG: the self-cleavage came out at 1.19.

For ACCGGAUGCGCUUUCCGGUCUGAUGAGUCCCUGAGGACGAAACAG, the self-cleavage came to 1.

With ACCGGAUGCGCUUUCCGGUCUGAUGAGUCCUUGAGGACGAAACAG, the self-cleavage turned out to be 0.948.

Turning to ACCGGAUGCGCUUUCCGGUCUGAUGAGUCCAUGAGGACGAAACAG, the self-cleavage is 1.39.

On to ACCGGAUGGGCUUUCCGGUAUGAUGAGUCCGUGAGGACGAAACAG, for which the self-cleavage was 0.331.

As for ACCGGAUGCGCUUUCCGGUCUGAUGAGUGCGUGAGGACGAAACAG, the self-cleavage came to 0.601.

On to ACCGGAUGCGCUUUCCGGUCUGAUGAGUUCGUGAGGACGAAACAG, for which the self-cleavage was 0.831.

In the case of ACCGGAUGCGCUUUCCGGUCUGAUGAGUACGUGAGGACGAAACAG, the self-cleavage stood at 0.77.

On to ACCGGAUGGGCUUUCCGGUCUGUUGAGUCCGUGAGGACGAAACAG, for which the self-cleavage is 0.366.

ACCGGAUGGGCUUUCCGGUCUGCUGAGUCCGUGAGGACGAAACAG: the self-cleavage stood at 0.448.

For ACCGGAUGGGCUUUCCGGUCUGGUGAGUCCGUGAGGACGAAACAG, the self-cleavage worked out at 0.385.

Regarding ACCGGAUGGGCUUUCCGGUCUGAUGAGUCCGUGAGGACGUAACAG, the self-cleavage was 0.304.

Consider ACCGGAUGGGCUUUCCGGUCUGAUGAGUCCGUGAGGACGCAACAG, for which the self-cleavage came out at 0.423.

On to ACCGGAUGGGCUUUCCGGUCUGAUGAGUCCGUGAGGACGGAACAG, for which the self-cleavage turned out to be 0.366.

Consider ACCGGAUGCGCUUUCGGGUCUGAUGAGUCCGUGAGGACGAAACAG, for which the self-cleavage was found to be 0.626.

On to ACCGGAUGCGCUUUCUGGUCUGAUGAGUCCGUGAGGACGAAACAG, for which the self-cleavage turned out to be 1.41.

With ACCGGAUGCGCUUUCAGGUCUGAUGAGUCCGUGAGGACGAAACAG, the self-cleavage was 1.04.

Turning to ACCGGAUGCGCUUUCCGGUCUGAUGAGUCCGAGAGGACGAAACAG, the self-cleavage is 0.837.

Consider ACCGGAUGCGCUUUCCGGUCUGAUGAGUCCGCGAGGACGAAACAG, for which the self-cleavage was determined as 1.49.

On to ACCGGAUGCGCUUUCCGGUCUGAUGAGUCCGGGAGGACGAAACAG, for which the self-cleavage came out at 0.9.

On to ACCGGAUGGGCUUUCCGGUCUGAUGAGUCCGUGCGGACGAAACAG, for which the self-cleavage was determined as 0.579.

For the variant ACCGGAUGGGCUUUCCGGUCUGAUGAGUCCGUGGGGACGAAACAG, the self-cleavage is 1.04.

ACCGGAUGGGCUUUCCGGUCUGAUGAGUCCGUGUGGACGAAACAG: the self-cleavage worked out at 0.631.

As for ACCGGAUGCGCUUUCCGGUCUUAUGAGUCCGUGAGGACGAAACAG, the self-cleavage was 0.307.

In the case of ACCGGAUGCGCUUUCCGGUCUAAUGAGUCCGUGAGGACGAAACAG, the self-cleavage worked out at 0.34.

As for ACCGGAUGCGCUUUCCGGUCUCAUGAGUCCGUGAGGACGAAACAG, the self-cleavage was 0.266.

On to ACCGGAUGCGCUUUCCGGUGUGAUGAGUCCGUGAGGACGAAACAG, for which the self-cleavage was 0.437.

Turning to ACCGGAUGCGCUUUCCGGUAUGAUGAGUCCGUGAGGACGAAACAG, the self-cleavage came out at 0.363.

On to ACCGGAUGCGCUUUCCGGUUUGAUGAGUCCGUGAGGACGAAACAG, for which the self-cleavage worked out at 0.504.

ACCGGAUGGGCUUUCCGGUCUGAUGAGUCCGUGAGGUCGAAACAG: the self-cleavage was 0.611.

With ACCGGAUGGGCUUUCCGGUCUGAUGAGUCCGUGAGGGCGAAACAG, the self-cleavage is 0.983.

For the variant ACCGGAUGGGCUUUCCGGUCUGAUGAGUCCGUGAGGCCGAAACAG, the self-cleavage is 0.805.

Take ACCGGAUGCGCUUUCCGGUCUGAUGAGUCCGUGAGGACGAAACAC: the self-cleavage is 0.648.

As for ACCGGAUGCGCUUUCCGGUCUGAUGAGUCCGUGAGGACGAAACAA, the self-cleavage came out at 0.78.

For ACCGGAUGCGCUUUCCGGUCUGAUGAGUCCGUGAGGACGAAACAU, the self-cleavage amounted to 0.591.

As to ACCGGAUGCGCUUUCCGAUCUGAUGAGUCCGUGAGGACGAAACAG, the self-cleavage was determined as 0.627.

ACCGGAUGCGCUUUCCGUUCUGAUGAGUCCGUGAGGACGAAACAG: the self-cleavage was determined as 0.738.

ACCGGAUGCGCUUUCCGCUCUGAUGAGUCCGUGAGGACGAAACAG: the self-cleavage amounted to 0.47.

With ACCGGAUGCGCUUUUCGGUCUGAUGAGUCCGUGAGGACGAAACAG, the self-cleavage stood at 0.863.

Take ACCGGAUGGGCUUUCCGGUCUGAUGAGUCCGUGAGGACGAAACAG: the self-cleavage was found to be 0.989.

Turning to ACCGGAUGGGCUUUCCGGUCUGAUGAGUCCGUGAGGACGAAACCG, the self-cleavage is 0.39.

On to ACCGGAUGGGCUUUCCGGUCUGAUGAGUCCGUGAGGACGAAACGG, for which the self-cleavage came to 1.07.

As for ACCGGAUGGGCUUUCCGGUCUGAUGAGUCCGUGAGGACGAAACUG, the self-cleavage was determined as 0.388.

On to ACCGGAUGGGCUUUCGGGUCUGAUGAGUCCGUGAGGACGAAACAG, for which the self-cleavage was 0.456.

For the variant ACCGGAUGGGCUUUCAGGUCUGAUGAGUCCGUGAGGACGAAACAG, the self-cleavage is 0.835.

Consider ACCGGAUGGGCUUUCUGGUCUGAUGAGUCCGUGAGGACGAAACAG, for which the self-cleavage is 0.848.
